Results reported in patent publication US20220220204A1.
pEC50: −log10 of the molar value. Each block holds one substance with its values, some of them ahead of it.

Key:
[1] = target: PD-L1 (UniProt Q9NZQ7); experiment: FACS binding
[2] = target: human PD-L1 (PD-L1 aAPC/CHO-K1 cells) (human) (UniProt Q9NZQ7); experiment: cell-based or functional assay
[3] = target: human LAG-3 (LAG-3 effector Jurkat T cells) (human) (UniProt P18627); experiment: cell-based or functional assay
Chain of human LAG-3 (LAG-3 effector Jurkat T cells) (human) (P18627 23-525): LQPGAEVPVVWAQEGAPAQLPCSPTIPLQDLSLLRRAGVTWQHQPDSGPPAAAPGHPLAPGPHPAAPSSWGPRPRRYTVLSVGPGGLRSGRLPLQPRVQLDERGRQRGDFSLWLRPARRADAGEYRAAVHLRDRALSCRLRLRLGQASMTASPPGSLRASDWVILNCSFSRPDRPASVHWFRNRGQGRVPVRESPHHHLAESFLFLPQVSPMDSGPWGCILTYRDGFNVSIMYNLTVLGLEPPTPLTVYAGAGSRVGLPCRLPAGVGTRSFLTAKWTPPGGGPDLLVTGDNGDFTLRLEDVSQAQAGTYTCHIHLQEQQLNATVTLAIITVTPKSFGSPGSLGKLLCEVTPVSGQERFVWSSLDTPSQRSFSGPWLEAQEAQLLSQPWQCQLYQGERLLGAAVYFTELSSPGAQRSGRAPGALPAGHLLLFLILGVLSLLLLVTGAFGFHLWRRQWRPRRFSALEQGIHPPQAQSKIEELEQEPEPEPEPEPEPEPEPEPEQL

Chain of human PD-L1 (PD-L1 aAPC/CHO-K1 cells) (human) (Q9NZQ7 19-290): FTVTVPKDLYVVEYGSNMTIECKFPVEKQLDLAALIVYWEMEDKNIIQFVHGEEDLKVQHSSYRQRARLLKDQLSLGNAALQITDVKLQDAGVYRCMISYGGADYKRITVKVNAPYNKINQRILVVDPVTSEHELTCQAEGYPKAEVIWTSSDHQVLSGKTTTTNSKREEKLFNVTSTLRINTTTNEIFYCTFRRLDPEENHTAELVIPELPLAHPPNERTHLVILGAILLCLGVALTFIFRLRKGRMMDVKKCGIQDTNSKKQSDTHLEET
Chain of PD-L1 (Q9NZQ7 19-290): as above

pEC50 [1]: 11.05
Substance: human IgG

Bottom (PD-1/PD-L1 blockade bioassay) [2]: 28700 | EC50 (PD-1/PD-L1 blockade bioassay) [2]: 0.342 | Log EC50 (PD-1/PD-L1 blockade bioassay) [2]: -0.467 | Top (PD-1/PD-L1 blockade bioassay) [2]: 117000
Substance: Tecentriq biosimilar (antibody)

Bottom (LAG-3 blockade bioassay) [3]: 312000 | Log EC50 (LAG-3 blockade bioassay) [3]: 0.841 | Top (LAG-3 blockade bioassay) [3]: 918000
Substance: 25F7 biosimilar (antibody)
